{"source": "patent US20070082843A1", "biological_target": "melanocortin-4 receptor (MC4R) (UniProt P32245)", "sequence (P32245 whole entry)": "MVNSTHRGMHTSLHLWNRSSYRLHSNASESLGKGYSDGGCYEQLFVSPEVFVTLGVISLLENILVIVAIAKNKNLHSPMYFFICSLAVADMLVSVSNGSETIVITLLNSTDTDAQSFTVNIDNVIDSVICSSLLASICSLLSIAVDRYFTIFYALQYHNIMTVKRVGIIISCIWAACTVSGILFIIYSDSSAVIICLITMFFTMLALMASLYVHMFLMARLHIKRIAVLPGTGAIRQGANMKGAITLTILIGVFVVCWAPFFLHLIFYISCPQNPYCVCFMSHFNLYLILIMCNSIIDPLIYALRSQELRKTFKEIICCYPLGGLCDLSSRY", "assay": "competitive binding vs [125I]-NDP-alpha-MSH (receptor not given; MC4R by Example 3)"}
{"substance": "melanotan II (MTII) (peptide)", "values": [{"measurement": "IC50", "value": "0.005 to 0.03", "unit": "µM"}]}
